From patent US9834772, “Aptamers bound human serum albumin and glycated human serum albumin” (National Science & Technology Development Agency)

How the values were obtained:
Conditions in all cases: label: 5' biotin
[1] = target: Glycated human serum albumin (GHSA) (Homo sapiens, UniProt P02768 P02768:25-609); assay: EMSA; unit as printed (umole); 25 C 1 h; also EMSA positive in Table 6 and direct ELISA positive
Experimental: Step 5: Aptamer analysis using Phototope®-Star Detection Kit (New England Biolabs) Nylon membrane was removed from the transferring set up and put in the clear plastic container containing solution A (5% Sodium Dodecyl Sulfate (SDS), 125 mM NaCl, 25 mM Sodium Phosphate, pH 7.5). The system was incubated at room temperature for 5 minutes with gentle shaking. The solution was discarded and 10 µL of streptavidin in 20 mL of solution A was added in the reaction container and incubated at room temperature for 5 minutes with gentle shaking. The solution was discarded. Then the membrane was washed 3 times by using solution B (1:10 of solution A in steriled water) with gentle shaking for 5 min. Then the washing buffer was discarded before the next round washing. […] in 20 mL of solution A was added in the container. Then the system was incubated at room temperature for 5 minutes with gentle shaking. Then the solution is discarded. The membrane was washed 3 times by solution C (10 mM Tris HCl, 10 mM NaCl, 1 mM […], pH 9.50) with gentle shaking and then solution is discarded. […]
The quantitative binding of G8 aptamer from this invention and clone 9 aptamer from the previous study were analyzed by electromobility shifted assay (EMSA) and results were compared. […]

[2] = target: T1, Human serum albumin (HSA) (Homo sapiens, UniProt P02768 P02768:25-609); assay: EMSA; 25 C 1 h
T1 sequence (P02768 25-609, one chain of several): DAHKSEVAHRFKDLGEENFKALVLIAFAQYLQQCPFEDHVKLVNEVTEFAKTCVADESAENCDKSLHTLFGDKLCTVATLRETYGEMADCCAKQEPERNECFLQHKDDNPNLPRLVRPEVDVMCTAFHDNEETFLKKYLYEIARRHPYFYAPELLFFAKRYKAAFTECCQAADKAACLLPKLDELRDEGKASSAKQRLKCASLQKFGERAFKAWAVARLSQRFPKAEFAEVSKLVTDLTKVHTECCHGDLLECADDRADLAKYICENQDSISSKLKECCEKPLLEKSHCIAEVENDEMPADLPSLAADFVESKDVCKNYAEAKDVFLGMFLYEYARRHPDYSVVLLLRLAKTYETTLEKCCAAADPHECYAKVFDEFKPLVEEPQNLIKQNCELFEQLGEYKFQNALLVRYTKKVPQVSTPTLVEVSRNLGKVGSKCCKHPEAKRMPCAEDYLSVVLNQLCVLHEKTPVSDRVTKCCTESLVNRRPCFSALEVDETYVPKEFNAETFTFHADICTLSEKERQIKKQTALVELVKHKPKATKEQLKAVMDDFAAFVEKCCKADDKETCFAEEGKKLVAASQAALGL
Experimental: (§1) After that the reaction was incubated at 4° C. for 1 minutes before use. Step 2: 1 µL HSA was mixed with 9 µL of aptamer against HSA and 1 µL of 0.4 µg/µL GHSA was mixed with 9 µL of aptamer against GHSA. Step 3: The reaction from step 2 was incubated at 25° C. for 1 hour and analyzed on 8% polyacrylamide gel at 100 V for 30 minutes. Step 4: Aptamers on the polyacrylamide gel from step 3 were transferred to nylon membrane (Amersham Hybond-N+; GE Healthcare). Classical DNA/RNA transferring method was used. The transferring buffer was SSC (150 mM […] and 15 mM Sodium citrate, pH 7.0) and incubation time was 12 h. Step 5: Aptamer analysis using Phototope®-Star Detection Kit (New England Biolabs) Nylon membrane was removed from the transferring set up and put in the clear plastic container containing solution A (5% Sodium Dodecyl Sulfate (SDS), 125 mM NaCl, 25 mM Sodium Phosphate, pH 7.5). The system was incubated at room temperature for 5 minutes with gentle shaking. The solution was discarded and 10 µL of streptavidin in 20 mL of solution A was added in the reaction container and incubated at room temperature for 5 minutes with gentle shaking. The solution was discarded. Then the membrane was washed 3 times by using solution B (1:10 of solution A in steriled water) with gentle shaking for 5 min. […]

[3] = target: T1, Human serum albumin (HSA); assay: EMSA; 25 C 1 h; indirect ELISA also + at 0.2-200 nM (Table 9)
Experimental: as §1

[4] = target: T1, Human serum albumin (HSA); assay: ELONA; indirect ELISA: + at 200, 2, 0.2 nM, - at 20 nM; PBST, room temperature
Source text: The binding assay of selected aptamers against HSA and aptamers against GHSA is deteimined by using Indirect Enzyme-Linked Immunosorbent Assay (Indirect ELISA) and Direct Enzyme-Linked Immunosorbent Assay (Direct ELISA), as described below. 3.1. Indirect Enzyme-Linked Immunosorbent Assay (Indirect ELISA) The principle of this experiment is based on two antibodies, which are antibodies against 5' biotinylated aptamer and antibodies against the first antibody. The second antibody is conjugated with horseradish peroxidase enzyme (HRP), which can changes TMB color from blue to be yellow. The yellow color intensity is direct indicator for the target protein concentration. Random selected aptamers in Table 5 and Table 6 were chosen for analysis using this method. Indirect ELISA Protocol Step 1: 0.8 μg of BSA or HSA or GHSA was added in 50 μl of 0.05 M carbonate buffer in 96 well plate (50 μL/well) and incubated at 4° C. for 1 night. In this process, all proteins will be coated on the 96 well plate.
Step 2: The reaction from step 1 was washed 5 times with Phosphate buffer (PBST) (0.05% Tween) using ELISA washing machine (Fluido 2) and tapped for 3-5 times.
Step 8: 50 μL of 0.6 M H_2SO_4 was added in the reaction and immediately measured the $OD_{450\ nm}$ using spectrophotometer.

Sequence of Glycated human serum albumin (GHSA) (P02768 25-609, one chain of several): as above

**Q.** Does GGTGCGGTTCGTGCGGTTGTAGTACTCGTGGCCGATAGAGGTAGTTTCG (ssDNA) [G8] bind [1]?
**A.** Result: binds

B1: H8 (ssDNA)
DNA: ATACCAGCTTATTCAATTCCCCCGGCTTTGGTTTAGAGGTAGTTGCTCATTACTTGTACGCTCCGGATGAGATAGTAAGTGCAATCT
**Q.** Does B1 bind [2]?
**A.** Result: binds

B2: H14 (ssDNA)
DNA: ATACCAGCTTATTCAATTCGCGCACATATACAGGGCTTTACCAGCGGGGAAGGTTAGCGACGCGAGGGGGAGATAGTAAGTGCAATCT
**Q.** Does B2 bind [3]?
**A.** Result: binds

B3: clone 9 (ssDNA)
DNA: TAACTCACTCCATACTCACTTGCTGATTCGCCAACAACACACCCTTAAACAGTCCC
**Q.** Does B3 bind [4]?
**A.** Result: binds
